Measurements as given in US20230002480A1.

Key:
Assay in all cases: cell-based or functional assay
[1] = target: HIV-1 Env of pseudovirus 1006_11_C3_1601 (HIV-1)
[2] = target: HIV-1 Env of pseudovirus 1012_11_TC21_3257 (HIV-1)
[3] = target: HIV-1 Env of pseudovirus 1394C9G1(Rev-) (HIV-1)
[4] = target: HIV-1 Env of pseudovirus 191955_A11 (HIV-1)
[5] = target: HIV-1 Env of pseudovirus 249M B10 (HIV-1)
[6] = target: HIV-1 Env of pseudovirus 62357_14_D3_4589 (HIV-1)
[7] = target: HIV-1 Env of pseudovirus 6240_08_TA5_4622 (HIV-1)
[8] = target: HIV-1 Env of pseudovirus BF1266.431a (HIV-1)
[9] = target: HIV-1 Env of pseudovirus CAP45.2.00.G3 (HIV-1)
[10] = target: HIV-1 Env of pseudovirus CNE17 (HIV-1)
[11] = target: HIV-1 Env of pseudovirus CNE19 (HIV-1)
[12] = target: HIV-1 Env of pseudovirus CNE30 (HIV-1)
[13] = target: HIV-1 Env of pseudovirus CNE58 (HIV-1)
[14] = target: HIV-1 Env of pseudovirus Ce703010054_2A2 (HIV-1)
[15] = target: HIV-1 Env of pseudovirus Du156.12 (HIV-1)
[16] = target: HIV-1 Env of pseudovirus Du422.1 (HIV-1)
[17] = target: HIV-1 Env of pseudovirus HIV-16055-2.3 (HIV-1)
[18] = target: HIV-1 Env of pseudovirus Q259.d2.17 (HIV-1)
[19] = target: HIV-1 Env of pseudovirus Q842.d12 (HIV-1)
[20] = target: HIV-1 Env of pseudovirus RHPA4259.7 (HIV-1)
[21] = target: HIV-1 Env of pseudovirus SC422661.8 (HIV-1)
[22] = target: HIV-1 Env of pseudovirus ZM109F.PB4 (HIV-1)
[23] = target: HIV-1 Env of pseudovirus ZM53M.PB12 (HIV-1)

Substance: 10-1074 (antibody)
- IC50, titer in TZM.bl cells [1]: 0.003 µg/mL
- IC80, titer in TZM.bl cells [1]: 0.013 µg/mL
- IC50, titer in TZM.bl cells [2]: 0.008 µg/mL
- IC80, titer in TZM.bl cells [2]: 0.059 µg/mL
- IC50, titer in TZM.bl cells [3]: 0.05 µg/mL
- IC80, titer in TZM.bl cells [3]: 0.191 µg/mL
- IC50, titer in TZM.bl cells [4]: > 50 µg/mL
- IC80, titer in TZM.bl cells [4]: > 50 µg/mL
- IC50, titer in TZM.bl cells [5]: > 50 µg/mL
- IC80, titer in TZM.bl cells [5]: > 50 µg/mL
- IC50, titer in TZM.bl cells [6]: > 50 µg/mL
- IC80, titer in TZM.bl cells [6]: > 50 µg/mL
- IC50, titer in TZM.bl cells [7]: 0.068 µg/mL
- IC80, titer in TZM.bl cells [7]: 0.306 µg/mL
- IC50, titer in TZM.bl cells [8]: > 50 µg/mL
- IC80, titer in TZM.bl cells [8]: > 50 µg/mL
- IC50, titer in TZM.bl cells [9]: > 50 µg/mL
- IC80, titer in TZM.bl cells [9]: > 50 µg/mL
- IC50, titer in TZM.bl cells [10]: 2.69 µg/mL
- IC80, titer in TZM.bl cells [10]: 13.3 µg/mL
- IC50, titer in TZM.bl cells [11]: 50 µg/mL
- IC80, titer in TZM.bl cells [11]: > 50 µg/mL
- IC50, titer in TZM.bl cells [12]: 0.363 µg/mL
- IC80, titer in TZM.bl cells [12]: 1.2 µg/mL
- IC50, titer in TZM.bl cells [13]: 0.267 µg/mL
- IC80, titer in TZM.bl cells [13]: 0.968 µg/mL
- IC50, titer in TZM.bl cells [14]: > 50 µg/mL
- IC80, titer in TZM.bl cells [14]: > 50 µg/mL
- IC50, titer in TZM.bl cells [15]: 0.015 µg/mL
- IC80, titer in TZM.bl cells [15]: 0.076 µg/mL
- IC50, titer in TZM.bl cells [16]: 0.045 µg/mL
- IC80, titer in TZM.bl cells [16]: 0.166 µg/mL
- IC50, titer in TZM.bl cells [17]: > 50 µg/mL
- IC80, titer in TZM.bl cells [17]: > 50 µg/mL
- IC50, titer in TZM.bl cells [18]: > 50 µg/mL
- IC80, titer in TZM.bl cells [18]: > 50 µg/mL
- IC50, titer in TZM.bl cells [19]: > 50 µg/mL
- IC80, titer in TZM.bl cells [19]: > 50 µg/mL
- IC50, titer in TZM.bl cells [20]: 0.021 µg/mL
- IC80, titer in TZM.bl cells [20]: 0.118 µg/mL
- IC50, titer in TZM.bl cells [21]: 0.091 µg/mL
- IC80, titer in TZM.bl cells [21]: 0.418 µg/mL
- IC50, titer in TZM.bl cells [22]: > 50 µg/mL
- IC80, titer in TZM.bl cells [22]: > 50 µg/mL
- IC50, titer in TZM.bl cells [23]: > 50 µg/mL
- IC80, titer in TZM.bl cells [23]: > 50 µg/mL

Substance: 10E8 (antibody)
- IC50, titer in TZM.bl cells [1]: 0.172 µg/mL
- IC80, titer in TZM.bl cells [1]: 3 µg/mL
- IC50, titer in TZM.bl cells [2]: 0.244 µg/mL
- IC80, titer in TZM.bl cells [2]: 4.21 µg/mL
- IC50, titer in TZM.bl cells [3]: 0.963 µg/mL
- IC80, titer in TZM.bl cells [3]: 5.33 µg/mL
- IC50, titer in TZM.bl cells [4]: 0.68 µg/mL
- IC80, titer in TZM.bl cells [4]: 3.53 µg/mL
- IC50, titer in TZM.bl cells [5]: 1.27 µg/mL
- IC80, titer in TZM.bl cells [5]: 9.05 µg/mL
- IC50, titer in TZM.bl cells [6]: 0.119 µg/mL
- IC80, titer in TZM.bl cells [6]: 1.06 µg/mL
- IC50, titer in TZM.bl cells [7]: 0.756 µg/mL
- IC80, titer in TZM.bl cells [7]: 5.59 µg/mL
- IC50, titer in TZM.bl cells [8]: 2.69 µg/mL
- IC80, titer in TZM.bl cells [8]: > 10 µg/mL
- IC50, titer in TZM.bl cells [9]: 1.82 µg/mL
- IC80, titer in TZM.bl cells [9]: > 10 µg/mL
- IC50, titer in TZM.bl cells [10]: 1.11 µg/mL
- IC80, titer in TZM.bl cells [10]: 5.25 µg/mL
- IC50, titer in TZM.bl cells [11]: 0.666 µg/mL
- IC80, titer in TZM.bl cells [11]: 6.49 µg/mL
- IC50, titer in TZM.bl cells [12]: 1.56 µg/mL
- IC80, titer in TZM.bl cells [12]: 9.84 µg/mL
- IC50, titer in TZM.bl cells [13]: 1.29 µg/mL
- IC80, titer in TZM.bl cells [13]: 8.27 µg/mL
- IC50, titer in TZM.bl cells [14]: 2.3 µg/mL
- IC80, titer in TZM.bl cells [14]: 8.58 µg/mL
- IC50, titer in TZM.bl cells [15]: 0.034 µg/mL
- IC80, titer in TZM.bl cells [15]: 0.144 µg/mL
- IC50, titer in TZM.bl cells [16]: 0.351 µg/mL
- IC80, titer in TZM.bl cells [16]: 1.88 µg/mL
- IC50, titer in TZM.bl cells [17]: 0.722 µg/mL
- IC80, titer in TZM.bl cells [17]: 6.5 µg/mL
- IC50, titer in TZM.bl cells [18]: 4.59 µg/mL
- IC80, titer in TZM.bl cells [18]: > 10 µg/mL
- IC50, titer in TZM.bl cells [19]: 4.19 µg/mL
- IC80, titer in TZM.bl cells [19]: > 10 µg/mL
- IC50, titer in TZM.bl cells [20]: 0.728 µg/mL
- IC80, titer in TZM.bl cells [20]: 5.28 µg/mL
- IC50, titer in TZM.bl cells [21]: 0.445 µg/mL
- IC80, titer in TZM.bl cells [21]: 2.71 µg/mL
- IC50, titer in TZM.bl cells [22]: 0.295 µg/mL
- IC80, titer in TZM.bl cells [22]: 1.89 µg/mL
- IC50, titer in TZM.bl cells [23]: 3.98 µg/mL
- IC80, titer in TZM.bl cells [23]: > 10 µg/mL

Substance: PG9 (antibody)
- IC50, titer in TZM.bl cells [1]: 0.366 µg/mL
- IC80, titer in TZM.bl cells [1]: 1.91 µg/mL
- IC50, titer in TZM.bl cells [2]: 0.172 µg/mL
- IC80, titer in TZM.bl cells [2]: 0.605 µg/mL
- IC50, titer in TZM.bl cells [3]: 0.029 µg/mL
- IC80, titer in TZM.bl cells [3]: 0.114 µg/mL
- IC50, titer in TZM.bl cells [4]: 0.053 µg/mL
- IC80, titer in TZM.bl cells [4]: 0.154 µg/mL
- IC50, titer in TZM.bl cells [5]: 0.095 µg/mL
- IC80, titer in TZM.bl cells [5]: 0.29 µg/mL
- IC50, titer in TZM.bl cells [6]: > 50 µg/mL
- IC80, titer in TZM.bl cells [6]: > 50 µg/mL
- IC50, titer in TZM.bl cells [7]: 1.75 µg/mL
- IC80, titer in TZM.bl cells [7]: 6.33 µg/mL
- IC50, titer in TZM.bl cells [8]: 0.026 µg/mL
- IC80, titer in TZM.bl cells [8]: 0.088 µg/mL
- IC50, titer in TZM.bl cells [9]: 0.007 µg/mL
- IC80, titer in TZM.bl cells [9]: 0.029 µg/mL
- IC50, titer in TZM.bl cells [10]: 0.21 µg/mL
- IC80, titer in TZM.bl cells [10]: 0.484 µg/mL
- IC50, titer in TZM.bl cells [11]: 0.024 µg/mL
- IC80, titer in TZM.bl cells [11]: 0.146 µg/mL
- IC50, titer in TZM.bl cells [12]: > 50 µg/mL
- IC80, titer in TZM.bl cells [12]: > 50 µg/mL
- IC50, titer in TZM.bl cells [13]: 0.038 µg/mL
- IC80, titer in TZM.bl cells [13]: 0.122 µg/mL
- IC50, titer in TZM.bl cells [14]: 0.022 µg/mL
- IC80, titer in TZM.bl cells [14]: 0.103 µg/mL
- IC50, titer in TZM.bl cells [15]: 0.026 µg/mL
- IC80, titer in TZM.bl cells [15]: 0.19 µg/mL
- IC50, titer in TZM.bl cells [16]: 0.614 µg/mL
- IC80, titer in TZM.bl cells [16]: 10.4 µg/mL
- IC50, titer in TZM.bl cells [17]: 0.021 µg/mL
- IC80, titer in TZM.bl cells [17]: 0.06 µg/mL
- IC50, titer in TZM.bl cells [18]: 0.029 µg/mL
- IC80, titer in TZM.bl cells [18]: 1.38 µg/mL
- IC50, titer in TZM.bl cells [19]: 0.023 µg/mL
- IC80, titer in TZM.bl cells [19]: 0.081 µg/mL
- IC50, titer in TZM.bl cells [20]: 22.6 µg/mL
- IC80, titer in TZM.bl cells [20]: > 50 µg/mL
- IC50, titer in TZM.bl cells [21]: 0.553 µg/mL
- IC80, titer in TZM.bl cells [21]: 7.05 µg/mL
- IC50, titer in TZM.bl cells [22]: 0.256 µg/mL
- IC80, titer in TZM.bl cells [22]: 6.69 µg/mL
- IC50, titer in TZM.bl cells [23]: 0.069 µg/mL
- IC80, titer in TZM.bl cells [23]: 0.221 µg/mL
